Experimental data taken from publication PMC8488679.

Tests used:
[1] = target: cytochrome c oxidase (COX), monomeric (bovine (endogenous in bovine heart mitochondria)) (UniProt P68530); assay: complexome profiling
[2] = target: Apoptosis-inducing factor 1 (AIFM1) (bovine (endogenous in bovine heart mitochondria)); assay: complexome profiling

Sequence of UniProt P68530 (P68530 whole entry, looked up): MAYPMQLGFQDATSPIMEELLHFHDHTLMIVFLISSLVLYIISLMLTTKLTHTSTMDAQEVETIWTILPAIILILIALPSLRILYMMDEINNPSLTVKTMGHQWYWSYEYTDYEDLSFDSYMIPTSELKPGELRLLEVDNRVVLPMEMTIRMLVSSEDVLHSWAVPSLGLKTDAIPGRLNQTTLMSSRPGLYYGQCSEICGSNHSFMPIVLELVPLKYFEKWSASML

percent of monomeric COX engaged in the complex [1]: 10%
stoichiometry N [2]: 2
Substance: Apoptosis-inducing factor 1 (AIFM1) (natural protein)
